Key:
Assay in all cases: cell-based or functional assay
[1] = biological target: HIV-1 Env of isolate MGRM-D-020 (subtype D) (HIV-1)
[2] = biological target: HIV-1 Env of isolate MGRM-F1-010 (subtype F) (HIV-1)
[3] = biological target: HIV-1 Env of isolate 92TH021 (subtype AE) (HIV-1)
[4] = biological target: HIV-1 Env of isolate CMU02 (subtype AE) (HIV-1)
[5] = biological target: HIV-1 Env of isolate MGRM-AE-001 (subtype AE) (HIV-1)
[6] = biological target: HIV-1 Env of isolate 93WR029 (subtype A) (HIV-1)
[7] = biological target: HIV-1 Env of isolate MGRM-F1-023 (subtype F) (HIV-1)
[8] = biological target: HIV-1 Env of isolate MGRM-D-016 (subtype D) (HIV-1)
[9] = biological target: HIV-1 Env of isolate MGRM-F1-015 (subtype F) (HIV-1)
[10] = biological target: HIV-1 Env of isolate 92WR009 (subtype A) (HIV-1)
[11] = biological target: HIV-1 Env of isolate MGRM-D-022 (subtype D) (HIV-1)
[12] = biological target: HIV-1 Env of isolate MGRM-AE-006 (subtype AE) (HIV-1)
[13] = biological target: HIV-1 Env of isolate VLGCA1 (subtype A) (HIV-1)
[14] = biological target: HIV-1 Env of isolate 92WR024 (subtype A) (HIV-1)
[15] = biological target: HIV-1 Env of isolate MGRM-F1-021 (subtype F) (HIV-1)
[16] = biological target: HIV-1 Env of isolate 92WR021 (subtype A) (HIV-1)
[17] = biological target: HIV-1 Env of isolate MGRM-F1-014 (subtype F) (HIV-1)
[18] = biological target: HIV-1 Env of isolate MGRM-F1-022 (subtype F) (HIV-1)
[19] = biological target: HIV-1 Env of isolate MGRM-F1-006 (subtype F) (HIV-1)
[20] = biological target: HIV-1 Env of isolate 92WR026 (subtype A) (HIV-1)
[21] = biological target: HIV-1 Env of isolate MGRM-D-026 (subtype D) (HIV-1)
[22] = biological target: HIV-1 Env of isolate MGRM-F1-020 (subtype F) (HIV-1)
[23] = biological target: HIV-1 Env of isolate MGRM-D-001 (subtype D) (HIV-1)
[24] = biological target: HIV-1 Env of isolate MGRM-F1-018 (subtype F) (HIV-1)
[25] = biological target: HIV-1 Env of isolate 93UG077 (subtype A) (HIV-1)
[26] = biological target: HIV-1 Env of isolate 92UG031 (subtype A) (HIV-1)
[27] = biological target: HIV-1 Env of isolate MGRM-D-002 (subtype D) (HIV-1)
[28] = biological target: HIV-1 Env of isolate MGRM-D-012 (subtype D) (HIV-1)
[29] = biological target: HIV-1 Env of isolate MGRM-D-004 (subtype D) (HIV-1)
[30] = biological target: HIV-1 Env of isolate MGRM-D-018 (subtype D) (HIV-1)
[31] = biological target: HIV-1 Env of isolate MGRM-D-019 (subtype D) (HIV-1)
[32] = biological target: HIV-1 Env of isolate MGRM-F1-008 (subtype F) (HIV-1)
[33] = biological target: HIV-1 Env of isolate MGRM-AE-007 (subtype AE) (HIV-1)
[34] = biological target: HIV-1 Env of isolate MGRM-AE-008 (subtype AE) (HIV-1)
[35] = biological target: HIV-1 Env of isolate MGRM-AE-004 (subtype AE) (HIV-1)
[36] = biological target: HIV-1 Env of isolate 94UG103 (subtype A) (HIV-1)
[37] = biological target: HIV-1 Env of isolate 92UG114 (subtype D) (HIV-1)
[38] = biological target: HIV-1 Env of isolate 92WR020 (subtype A) (HIV-1)
[39] = biological target: HIV-1 Env of isolate MGRM-D-029 (subtype D) (HIV-1)
[40] = biological target: HIV-1 Env of isolate MGRM-F1-017 (subtype F) (HIV-1)
[41] = biological target: HIV-1 Env of isolate MGRM-D-024 (subtype D) (HIV-1)
[42] = biological target: HIV-1 Env of isolate MGRM-D-021 (subtype D) (HIV-1)
[43] = biological target: HIV-1 Env of isolate 92UG037 (subtype A) (HIV-1)
[44] = biological target: HIV-1 Env of isolate MGRM-D-011 (subtype D) (HIV-1)
[45] = biological target: HIV-1 Env of isolate MGRM-D-013 (subtype D) (HIV-1)
[46] = biological target: HIV-1 Env of isolate MGRM-AE-003 (subtype AE) (HIV-1)
[47] = biological target: HIV-1 Env of isolate MGRM-F1-013 (subtype F) (HIV-1)
[48] = biological target: HIV-1 Env of isolate 94 KE 105 (subtype AC) (HIV-1)
[49] = biological target: HIV-1 Env of isolate MGRM-F1-004 (subtype F) (HIV-1)
[50] = biological target: HIV-1 Env of isolate MGRM-D-003 (subtype D) (HIV-1)
[51] = biological target: HIV-1 Env of isolate MGRM-AE-005 (subtype AE) (HIV-1)
[52] = biological target: HIV-1 Env of isolate MGRM-D-028 (subtype D) (HIV-1)
[53] = biological target: HIV-1 Env of isolate MGRM-AE-002 (subtype AE) (HIV-1)
[54] = biological target: HIV-1 Env of isolate MGRM-D-005 (subtype D) (HIV-1)
[55] = biological target: HIV-1 Env of isolate MGRM-F1-012 (subtype F) (HIV-1)
[56] = biological target: HIV-1 Env of isolate MGRM-D-014 (subtype D) (HIV-1)
[57] = biological target: HIV-1 Env of isolate MGRM-D-008 (subtype D) (HIV-1)
[58] = biological target: HIV-1 Env of isolate MGRM-F1-016 (subtype F) (HIV-1)

Chain of PGT-145 (4995_P16) (antibody) (VH): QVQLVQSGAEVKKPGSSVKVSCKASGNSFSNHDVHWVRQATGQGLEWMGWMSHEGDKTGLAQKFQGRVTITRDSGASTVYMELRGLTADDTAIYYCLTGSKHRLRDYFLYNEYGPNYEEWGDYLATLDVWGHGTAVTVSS
Chain of PGT-145 (4995_P16) (antibody) (VL): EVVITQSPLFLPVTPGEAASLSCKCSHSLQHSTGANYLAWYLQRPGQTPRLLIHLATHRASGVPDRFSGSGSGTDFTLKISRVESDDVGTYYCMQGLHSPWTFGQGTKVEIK

PGT-145 (4995_P16) (antibody)
IC50 (pseudovirus neutralization) [1]: 10 µg/mL
IC50 (pseudovirus neutralization) [2]: 3.32 µg/mL
IC50 (pseudovirus neutralization) [3]: 0.013 µg/mL
IC50 (pseudovirus neutralization) [4]: 1.43 µg/mL
IC50 (pseudovirus neutralization) [5]: 20.9 µg/mL
IC50 (pseudovirus neutralization) [6]: > 50 µg/mL
IC50 (pseudovirus neutralization) [7]: 5.88 µg/mL
IC50 (pseudovirus neutralization) [8]: > 50 µg/mL
IC50 (pseudovirus neutralization) [9]: 1.76 µg/mL
IC50 (pseudovirus neutralization) [10]: 0.026 µg/mL
IC50 (pseudovirus neutralization) [11]: 34.3 µg/mL
IC50 (pseudovirus neutralization) [12]: > 50 µg/mL
IC50 (pseudovirus neutralization) [13]: 8.01 µg/mL
IC50 (pseudovirus neutralization) [14]: 0.069 µg/mL
IC50 (pseudovirus neutralization) [15]: 8.04 µg/mL
IC50 (pseudovirus neutralization) [16]: 1.62 µg/mL
IC50 (pseudovirus neutralization) [17]: 0.009 µg/mL
IC50 (pseudovirus neutralization) [18]: 0.009 µg/mL
IC50 (pseudovirus neutralization) [19]: 13.6 µg/mL
IC50 (pseudovirus neutralization) [20]: 1.45 µg/mL
IC50 (pseudovirus neutralization) [21]: 0.41 µg/mL
IC50 (pseudovirus neutralization) [22]: 0.816 µg/mL
IC50 (pseudovirus neutralization) [23]: 0.56 µg/mL
IC50 (pseudovirus neutralization) [24]: 1.02 µg/mL
IC50 (pseudovirus neutralization) [25]: > 50 µg/mL
IC50 (pseudovirus neutralization) [26]: 3.22 µg/mL
IC50 (pseudovirus neutralization) [27]: > 50 µg/mL
IC50 (pseudovirus neutralization) [28]: > 50 µg/mL
IC50 (pseudovirus neutralization) [29]: 10.9 µg/mL
IC50 (pseudovirus neutralization) [30]: 0.065 µg/mL
IC50 (pseudovirus neutralization) [31]: 0.111 µg/mL
IC50 (pseudovirus neutralization) [32]: 0.228 µg/mL
IC50 (pseudovirus neutralization) [33]: 0.181 µg/mL
IC50 (pseudovirus neutralization) [34]: 1.46 µg/mL
IC50 (pseudovirus neutralization) [35]: 0.006 µg/mL
IC50 (pseudovirus neutralization) [36]: 0.331 µg/mL
IC50 (pseudovirus neutralization) [37]: 20.1 µg/mL
IC50 (pseudovirus neutralization) [38]: 0.997 µg/mL
IC50 (pseudovirus neutralization) [39]: 0.03 µg/mL
IC50 (pseudovirus neutralization) [40]: 0.286 µg/mL
IC50 (pseudovirus neutralization) [41]: 0.224 µg/mL
IC50 (pseudovirus neutralization) [42]: > 50 µg/mL
IC50 (pseudovirus neutralization) [43]: 3.15 µg/mL
IC50 (pseudovirus neutralization) [44]: 14.7 µg/mL
IC50 (pseudovirus neutralization) [45]: 3.48 µg/mL
IC50 (pseudovirus neutralization) [46]: 0.552 µg/mL
IC50 (pseudovirus neutralization) [47]: 0.402 µg/mL
IC50 (pseudovirus neutralization) [48]: 1.32 µg/mL
IC50 (pseudovirus neutralization) [49]: 0.361 µg/mL
IC50 (pseudovirus neutralization) [50]: 0.006 µg/mL
IC50 (pseudovirus neutralization) [51]: 0.967 µg/mL
IC50 (pseudovirus neutralization) [52]: 0.721 µg/mL
IC50 (pseudovirus neutralization) [53]: 1.87 µg/mL
IC50 (pseudovirus neutralization) [54]: 10.4 µg/mL
IC50 (pseudovirus neutralization) [55]: 0.113 µg/mL
IC50 (pseudovirus neutralization) [56]: 2.51 µg/mL
IC50 (pseudovirus neutralization) [57]: 0.025 µg/mL
IC50 (pseudovirus neutralization) [58]: 17.5 µg/mL
